Data reported in US20210388087A1 (Chugai, published 2021).
Substitutions are numbered along the chain they refer to.

B1: CE115HA000/GLS3000 S26E (antibody, IgG1, name in Kabat numbering, V domains shown)
VH: QVQLVESGGGVVQPGRSLRLSCAASGFTFSNAWMHWVRQAPGKGLEWVAQIKAKSNNYATYYAESVKGRFTISRDDSKNSLYLQMNSLKTEDTAVYYCRYVHYGAYYGVDAWGQGTTVTVSS
VL: DIVMTQSPLSLPVTPGEPASISCRSEQSLVHSNRNTYLHWYQQKPGQAPRLLIYKVSNRFSGVPDRFSGSGSGTDFTLKISRVEAEDVGVYYCGQGTQVPYTFGQGTKLEIK
notes: one-arm IgG1
B2: CE115HA000/GLS3000 S27eL (antibody, IgG1, name in Kabat numbering, V domains shown)
VH: B1 VH
VL: B1 VL with E26S, S32L
notes: one-arm IgG1
B3: CE115HA000/GLS3000 S26P (antibody, IgG1, name in Kabat numbering, V domains shown)
VH: B1 VH
VL: B1 VL with E26P
notes: one-arm IgG1
B4: CE115HA000/GLS3000 S27aI (antibody, IgG1, name in Kabat numbering, V domains shown)
VH: B1 VH
VL: B1 VL with E26S, S28I
notes: one-arm IgG1
B5: CE115HA000/GLS3000 S27aE (antibody, IgG1, name in Kabat numbering, V domains shown)
VH: B1 VH
VL: B1 VL with E26S, S28E
notes: one-arm IgG1
B6: CE115HA000/GLS3000 S27aN (antibody, IgG1, name in Kabat numbering, V domains shown)
VH: B1 VH
VL: B1 VL with E26S, S28N
notes: one-arm IgG1
B7: CE115HA000/GLS3000 S27aP (antibody, IgG1, name in Kabat numbering, V domains shown)
VH: B1 VH
VL: B1 VL with E26S, S28P
notes: one-arm IgG1
B8: CE115HA000/GLS3000 S27eD (antibody, IgG1, name in Kabat numbering, V domains shown)
VH: B1 VH
VL: B1 VL with E26S, S32D
notes: one-arm IgG1
B9: CE115HA000/GLS3000 S27eK (antibody, IgG1, name in Kabat numbering, V domains shown)
VH: B1 VH
VL: B1 VL with E26S, S32K
notes: one-arm IgG1
B10: CE115HA000/GLS3000 S27eF (antibody, IgG1, name in Kabat numbering, V domains shown)
VH: B1 VH
VL: B1 VL with E26S, S32F
notes: one-arm IgG1
B11: CE115HA000/GLS3000 S27eI (antibody, IgG1, name in Kabat numbering, V domains shown)
VH: B1 VH
VL: B1 VL with E26S, S32I
notes: one-arm IgG1
B12: CE115HA000/GLS3000 S27aY (antibody, IgG1, name in Kabat numbering, V domains shown)
VH: B1 VH
VL: B1 VL with E26S, S28Y
notes: one-arm IgG1
B13: CE115HA000/GLS3000 S27eG (antibody, IgG1, name in Kabat numbering, V domains shown)
VH: B1 VH
VL: B1 VL with E26S, S32G
notes: one-arm IgG1
B14: CE115HA000/GLS3000 S27aG (antibody, IgG1, name in Kabat numbering, V domains shown)
VH: B1 VH
VL: B1 VL with E26S, S28G
notes: one-arm IgG1
B15: CE115HA000/GLS3000 S27eE (antibody, IgG1, name in Kabat numbering, V domains shown)
VH: B1 VH
VL: B1 VL with E26S, S32E
notes: one-arm IgG1
B16: CE115HA000/GLS3000 S27eH (antibody, IgG1, name in Kabat numbering, V domains shown)
VH: B1 VH
VL: B1 VL with E26S, S32H
notes: one-arm IgG1
B17: CE115HA000/GLS3000 S27aD (antibody, IgG1, name in Kabat numbering, V domains shown)
VH: B1 VH
VL: B1 VL with E26S, S28D
notes: one-arm IgG1

What follows are binders tested against T1, CD3 epsilon homodimer protein (UniProt P07766 23-126) (assay: SPR, antibody over immobilised CD3e homodimer;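 note: SPR at 25 °C with CD3 epsilon homodimer amine-coupled to a CM4 sensor chip and antibody flowed over as analyte in HBS-EP+ running buffer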).
T1 construct: also called CD3 (CD3 epsilon)
T1 sequence (P07766 23-126): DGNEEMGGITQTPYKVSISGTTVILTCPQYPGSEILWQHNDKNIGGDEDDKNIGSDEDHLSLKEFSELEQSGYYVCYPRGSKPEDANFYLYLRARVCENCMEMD

First: B1
Second: B2
The “KD ratio to GLS3000” value of the first is lower: 0.9 for the first, 1.06 for the second.

First: B3
Second: B4
The “KD ratio to GLS3000” value of the first is lower: 0.67 for the first, 0.87 for the second.

Compared with B5, B6 is higher in “KD ratio to GLS3000” value: 0.94 for the first, 0.98 for the second.

First: B7
Second: B8
The “KD ratio to GLS3000” value of the first is lower: 1.01 for the first, 1.23 for the second.

Going from B9 to B10, the “KD ratio to GLS3000” value falls from 1.32 to 1.16.

Going from B11 to B12, the “KD ratio to GLS3000” value falls from 1.05 to 0.93.

First: B13
Second: B14
The “KD ratio to GLS3000” value of the first is higher: 1.03 for the first, 0.8 for the second.

First: B15
Second: B16
The “KD ratio to GLS3000” value of the first is lower: 1.04 for the first, 1.09 for the second.

With B17 the “KD ratio to GLS3000” value was 0.94.
